# According to article PMC314469, “Protein Interaction Networks by Proteome Peptide Scanning” (PLoS Biology, 2004):
# T1: Myo5 SH3 (MYO5_YEAST), Q04439
# T1 chain: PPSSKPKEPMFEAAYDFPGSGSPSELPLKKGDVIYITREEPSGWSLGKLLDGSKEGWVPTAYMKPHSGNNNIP
# T2: Yfr024 SH3 (LSB3_YEAST), P43603
# T2 chain: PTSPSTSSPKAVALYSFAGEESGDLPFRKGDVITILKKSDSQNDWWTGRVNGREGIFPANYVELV
# T3: Yhr016c SH3 (YSC84_YEAST), P32793
# T3 chain: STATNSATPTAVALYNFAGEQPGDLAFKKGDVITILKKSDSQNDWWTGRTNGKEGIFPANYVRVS
# T4: Rvs167 SH3 (RV167_YEAST), P39743
# T4 chain: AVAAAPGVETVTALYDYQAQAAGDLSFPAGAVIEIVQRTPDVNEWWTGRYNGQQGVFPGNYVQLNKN
# T5: Boi2 SH3 (BOI2_YEAST), P39969
# T5 chain: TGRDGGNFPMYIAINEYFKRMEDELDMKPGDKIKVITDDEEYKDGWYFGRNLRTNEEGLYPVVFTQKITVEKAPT
# T6: Boi1 SH3 (BOI1_YEAST), P38041
# T6 chain: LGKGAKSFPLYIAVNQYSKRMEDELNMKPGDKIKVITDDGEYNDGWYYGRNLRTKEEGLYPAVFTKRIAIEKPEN
# Key:
# Experiment in all cases: SPOT array
# [1] = target: T1, Myo5 SH3 (MYO5_YEAST), Q04439
# [2] = target: T2, Yfr024 SH3 (LSB3_YEAST), P43603
# [3] = target: T3, Yhr016c SH3 (YSC84_YEAST), P32793
# [4] = target: T4, Rvs167 SH3 (RV167_YEAST), P39743
# [5] = target: T5, Boi2 SH3 (BOI2_YEAST), P39969
# [6] = target: T6, Boi1 SH3 (BOI1_YEAST), P38041
# [7] = target: Sho1 SH3 (SHO1_YEAST), P40073
# Sho1 SH3 (SHO1_YEAST), P40073, sequence (P40073 295-366): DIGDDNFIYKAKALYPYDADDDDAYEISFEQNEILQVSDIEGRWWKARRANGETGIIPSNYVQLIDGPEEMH
Binder,"normalised SPOT signal, Boehringer light units (BLU); mean over the file's lines of this peptide [1]","normalised SPOT signal, Boehringer light units (BLU); mean over the file's lines of this peptide [2]","normalised SPOT signal, Boehringer light units (BLU); mean over the file's lines of this peptide [3]","normalised SPOT signal, Boehringer light units (BLU); mean over the file's lines of this peptide [4]","normalised SPOT signal, Boehringer light units (BLU); mean over the file's lines of this peptide [5]","normalised SPOT signal, Boehringer light units (BLU); mean over the file's lines of this peptide [6]","normalised SPOT signal, Boehringer light units (BLU); mean over the file's lines of this peptide [7]"
AISKKLGPDTPIKV [YOR219C 612-625],176,48.8,7,14.9,3.3,466,18.4
AGLYKLSPLYPFDV [YLR291C 296-309],133,0,17.7,17.9,0,106,26.3
AKIDKVSPEDPWVL [YJR158W 273-286],248,33.6,13.1,16,15.6,54.6,25.7
ALLRRTIPKRPFYH [YDL142C 12-25],914,7070,972,1850,253,4780,34.4
AKINKVSPEDPWVL [YDL245C 273-286],121,14.9,12.2,39,12.9,117,23.6
ALLIKTVPGFPLLE [YGR061C 138-151],144,39.7,7.6,11.8,48,78.5,22.1
AKLRKFHPPEPYKG [YHR147C 183-196],119,128,32.7,48.5,34.8,274,133
AGMAKTKPDVPLSY [YLR216C 44-57],158,87.4,27.3,61.7,0,20.7,52.2
AKDYRFNPAIPLRI [YLR073C 11-24],304,1400,559,534,30.5,1420,208
AKSNKVSPEDPAVQ [YLR081W 283-296],371,142,12.5,159,24.3,571,44.1
AKTNKNVPVLPTPG [YDL195W 766-779],130,97.7,30.3,136,70.7,1420,91.3
AKVNKSPPDHPYIQ [YHR094C 277-290],164,39.4,18.6,53,20.2,426,32.9
AGQERFAPLAPMYY [YNL093W 69-82],101,98.8,15.9,102,30.4,33.8,23.3
ALEERFDPKSPTKR [YMR129W 520-533],108,4.1,63.6,56.3,13.4,948,33.3
AGPRKYIPRAPAQG [YGL063W 287-300],195,233,45.1,94.4,39.1,1440,63
AKLHRTKPVKPLSK [YLR430W 1004-1017],502,162,42.3,34.5,4.6,382,109
